A protein production outcome set (Wang et al. 2014)

Assay: label from the status in PepcDB records

With “MSVETQRESLLNAPALLFMSAVVLIAFWILFPRQPAFRDPANLSAKDALSVAYLRVLVQSDPGNAPLRLSFVQVLTEAGMTDEAVLAMEPLQNAPESGLTYEIRLAELKLALQQLYRHPPRDVEASLRRRIGELVPLLLRLADNDKESNQVVLLAEQFGEPSVVAETFEQLAGMQNETRQTKSRWLAFAAKQRLAAAQPRAAAQNFCRAFTFERIARKKTELAKACLGAYLQAGVDREALKAAMQILSAYSSSNADAQLLLLAADVAQPMGDRDHALVWLEQASAHLPADQRLAERVVRLQVSMGLLSEGLARAPMLRASLIPGSERQRLLAHLYDWNGQPDEALALWLSFARHKADEEAETRAFALAQAKPDNEAIVQLLEAVMSRRKLTTTEADAYVKAGLAVAQPSRVEKQLRRHAERFGNPPPILNALVEVLVLQGKPDAALTLYEDMPEIQDGRQRLALARLYEEAGNTQKSFQLLLRDIDSPPPASAEEYWLLLAKVSTQLGQDAYAGQAYEKALALRSNDVEILENLQRLALRHHDEKKSERLARYGWERLKRIEDLQRLMRFSWKRRNWDELDQWLEVAEKLPSAAQARDYWYFQSMRRMAHGEQSAARGALQEILKLQAADPEVTEAMIWLLLAYEKIDRVLLDSVVAPYRAQTASQSTVNPALAEALAAAEQGLGRPVQAAAWFLRSLSTRAGDFLWILALADNMEWAGCPAHANYARFQALEMFASRQNSRIEVKYPSRLAEYFFGSKYLPPKREGTEDAKKQEELQSIRDQWGFGGKLDNADYFALRREVERLELSQWKDFAKAVRNRNEREVERQLALISDHLKRQPAAASHPDMLPLSIDDVDRANRWLAGEPEPNPSDLATELDICRETLTKIREFPVNSEPAKR” the protein production was “failed”.

For “SSPQHLLVGGSGWNKIAIINKDTKEIVWEYPLEKGWECNSVAATKAGEILFSYSKGAKMITRDGRELWNIAAPAGCEMQTARILPDGNALVAWCGHPSTILEVNMKGEVLSKTEFETGIERPHAQFRQINKNKKGNYLVPLFATSEVREIAPNGQLLNSVKLSGTPFSSAFLDNGDCLVACGDAHCFVQLNLESNRIVRRVNANDIEGVQLFFVAQLFPLQNGGLYICNWQGHDREAGKGKHPQLVEIDSEGKVVWQLNDKVKFGMISTICPIRE”, the protein production was “not failed”.

In the case of “MSDVEDVPETQLEIDVSDGAGLEDEDDDDMEQITAQKVLEIIETAWINEMCAPEILPSQTDMLELMVSQVAHMEEQMRDLDKNDFRAVVHSMELERVRYIMASYLRCRLQKIETFTQHILNQEESREPDDKRLSPEETKFAQEFASNVDEYFHKVATQYMPNQQRGEAEQRIVTPNLMSHVFLKANVAVPAVIVGVDDEEVDMAAGSQHIIPYQLVADLIQNNQAQLI”, the protein production is reported as “failed”.

For “MCVRLENENFKAELSESGAELTSLKSKNTDNEYIWTANSSYWGRHAPILFPIVGKVKDNKYRIADKVYNLSQHGFARDMEFEVEDNASDRAVFKLVWNDETLEKYPYKFELRVIYVLKDSTVDVTYNVKNVDDKDIFFSIGAHPGFNCPVIGKQSENDELQFEDYYIEFEKRETTGVVKLNSSNLLSRNTSPFLYASNILNLSEKLFKQGALILKDLDSTSISLKNDKNTTSVTVSFEGFPYVGLWSKPEGAPFVCIEPWFGHADYEDFNGDFREKEDGLKLEVGKEFECTYSITIGELEHHHHHH”, the protein production was “not failed”.

In the case of “MSEPIPPFRYAPIVCSEQSTIVAEFVPEASGVREAGYQSEAELEAAFIKQLQGQAYEYLPITSEAALLANLRRQLEKLNKVTLSDAEWEGFFSTCIAGAHDGIVEKTARIQENHVQVLKRDDGTIKNMCLLDKVNIHNNTLQVMNQYAVEGARANRYDVTVLVNGLPMVHVELKRRGVDIREAFNQINRYQRDSFWAGSGLLDYVQLFVISNGTLTKYYSNTVRAGHVEEQSNKRSKSKTSNSFSFAIWWADAKNQPITELTSFTKTFFAKHSLLNVLTKYCVFNAKRKLLVMRPYQIVAAERILQRIVIATHQQQLGTVAAGGYIWHTTGSGKTLTSFKVAQLACGLGVIDKVLFVVDRKDLDYQTMREYESFQKGAANSNTSTAVLQRQLEDSDVHIIITTIQKLSRFVAKHKQHPVYGAHVVVIFDECHRSQFGDMHTKITRAFQRYHLFGFTGTPIFAENAGSTQNPMRRTTQQTFGDTLHTYTIVDAINDKTVLPFRIDYINTIKSQPNIKDKKVAAIDTERALLAPERIRQIVSYIREHFDQKTKRASIYRHEGQRLAGFNSLLATASIDAAKRYYAELMAQQKELPEARRLKVGLIYSVAANEGGGDGGLGEEEFETEGLDQESRNFLEAAIQDYNALFGTSFDTSADKFQNYYKDVSERLKKRKLDILIVVNMFLTGFDATTLNTLWVDKPLKAHGLIQAYSRTNRILNSVKSYGNIVSFRNLEQETNEALALFGNKDAKGIVLLRPYAEYYKQYEERVGELMAAFPLGKAIVGEAAQKAFITLFGSILRLKNILTAFDDFGGQEILTEREFQDYQSLYLNLYAEFRSASAAEKESINDDVVFEIELIKQVEINVDFILLLVEQYVKKKGTGEDKDIRATIERAIHSSPSLRNKKELIEQFVDAVSMKAKVDAQWQAFVAVKQSQELEGIIAEENLNAEAAREFIGNAFRDGGIPAMGTAITKVLPPVSRFSKNNGHAAKKQAVLDKFATFFERYFGLV”, the protein production is reported as “failed”.

In the case of “MIIRIKHYGEVKIEDSKNLLLNLIENRIGIDNICNGKGTCGKCKVRFRQGVPEATSADLRYLSVEELEEGVRLACQVKPQKGMEIDVTLSNSFDRKNTVLEHHHHHH”, the protein production is reported as “failed”.

With “MAPSHDRGRVDRALARVSHAFSILIAALTFALPGVATAGDVPTFAVDPAWPKPLPNNWILGQVGGITVDWQGHIWVIHRPRSLTDDEKGASLNPPRSKCCVSAPPVLEFDTDGNLLRSWGGLGEGYEWVGREHGIEVDERGFVWVGGNADNDNAILKFTLDGKFVAQIGKIAPSLGSNDTTQLGKPAETAIDKAANEIYVADGYGNRRVIVFDATTLAYKRHWGAYGNKPNDDKQGPYDPKAPVAQQFGNPVHCVKLANDGLVYVCDRINNRIQVFRKDGTFVKEFFFEKNTLGNGAVWDIAIWPDPKQTWLLSADGENNEIRVIRRDDGSVVGSFGRNGRNAGQFHWVHAMAIDAKGNVYTAEVDTGKRIQKFKLTSDALK” the protein production was “failed”.

With “MTHYHFVGIKGSGMSSLAQIMHDLGHEVQGSDIESYVFTEVALRNKGIKILPFDANNITKEMVVIQGNAFPDNHEEIVRAHELKLDIIKYHDFLGHVINQYTSVAVTGAHGKTSTTGLLSHVMNGDKKTSFLIGDGTGMGLPGSDYFAFEACEYRRHFLSYHPDYAIMTNIDFDHPDYFKNIDDVYDAFQHMALNVKKGIIAWGDDEYLRKLDVDIPVYYYGFKETDDIYAKNIQITEKGTQFDVYIKGEFYDQFLSPQYGNHNILNALAVIAISYLEDMNVENIKEALITFGGVKRRFNETKVSNQVIVDDYAHHPREISATIETARKKYPQKDVVAVFQPHTFSRTQAFLNEFAESLSKADQVFLCEIFGSIRENTGDLTIEDLINRIDGSTLIDENSIDVLEKFDNAVILFMGAGDIQKLLKAYFEKLGVKNDF” the protein production was “failed”.

In the case of “MEVDTMETLIRLFVSILIICVLALMIKKSRCLDNEGVIGSSIMGFILLYFCGFKYLILLLSFFILGVLVSRVGLEKKKAKKMDETCRSLKNVLANGLIPILFAILAIFGFNWALIGYISSIAAATSDTFSSELGILSNEKPRLITTFEVVEKGTDGAITIFGTLAGVLGAFLIGLFGYLLFGDIKIVLCGTAGGIAGNLADSLVGALFERKGILNNEHVNLIATIVGGIIGVLIYCTL”, the protein production is reported as “failed”.

For “MKNRETDSNVVTLYVTRHGKTILNTNHRAQGWADSPLVEKGVEVATNLGTGLKDIHFMNAYSSDSGRAIETANLVLKYSEQSKLKLEQRKKLRELNFGIFEGEKLDNMWDAVGKAAGVTSPEELLKFSIQEVIDLIRAADPTKQAEDWELFSTRIKAEIDKISEEAAKDGGGNVLVVVHGLLITTLIEMLDSSKTKLGVENASVTKIVYQDGIYTVESVGDMSYVAKGKESVEI”, the protein production was “not failed”.

With “MSFSYGLAVPFVPTLVLLPQTSAAHVQRIRGGNILSLIDQPPPVVPTLTPPPQQARSGIRINKVTSSYAGLLTSVKEAGLLERCRRDYLLLLTLLVIAGAGVLVAFFFVGDSWLQLVVAAALGIVFTQFALFGHEAAHQQVFTSRAANEWAARLIATLMVGMSYAYWTDKHSRHHARPNVVNRDPDIAPGAIVFHNEVPTNRGRFSRAYGKRQGYLLFPLLLFLGWTLHIDSLKYLLKRGPVKFRWLELGLLGVRFGTYIGLLFLVLSPGIAVAFIGVQVAVFGLYMGGTFAPNHKGMPILPADSRADFLSRQVLTSRNITGGGFVTFLMGGLNYQIEHHLFPDMPRRHLREASQLVKAHCVRTGIPYTETSLMRSYSIVIRYLNTVGLAAADPFTCPLAGQHRP” the protein production was “failed”.

For “EVSYAKERVRLITASGRTHDLTVELAVDPSQREQGLMYRRQMAPDHGMLFDFGETRPVMMWMKNTYLPLDMLFIASDGTIRTIHENAVPHSEAIIDSREPVAYVLELNAGTVKRLGVSPGDRLEGAGLPATKRAN”, the protein production was “not failed”.

For “MGHHHHHHSHMGKKLLVLDVDYTLFDHRSCAETGVELMRPYLHEFLTSAYEDYDIVIWSATNMKWIEAKMKELGVSTNANYKITFMLDSAAMITVHTPRRGLIDVKPLGVIWGKFSEFYSKKNTIMFDDIGRNFLMNPQNGLKIRPFMKAHLNRDKDKELLKLTQYLKEIAKLDDFLDLNHKY”, the protein production was “failed”.

In the case of “MGTSDEEIDRLLGKLTPRARALLLNGATTWRTRAEPAVELRELVMSDGPAGVRGEAWDERSTSLLLPSASALAATWDEALVEDLGGLLAAEARRKGVDVLLAPTLNLHRSPLGGRHFECLSEDPELTGRIGAALVRGIQAHGVAATAKHYVANDSETDRLTVDVRVGERALREVYLAPFEAAVAAGVRLVMAGYNAVNGTTMTANALLTDPLKSEWGFDGVVVSDWGAVRGTTGTARAGLDLAMPGPDGPWGEALARAVAEGAVPEPAVDDKARRLLRLAAWLGALGGRDVSRSPVPGRPADSPGAEGADGGAGAGPSSGAEGLPGRGPAHGAKPSGPRPRRAGDGRALARRAVAAGAVLLANKDVLPLDPEHLGTVAVIGAHAARTRTQGGGSAGVFPRGEVSVLDGIRAELRGRARVVHVPGPRPDGPAPPLDPDTCTDPRSGLPGVLLRMLDADGRELYAERRRGGRLLEPRLVPGAHTVEIRARLCPRTGGSWSLGVAGFGRMSLTTDGRTLLEGDFPPSTDDPAVMHVNPPAQYATADLTAGRDTLLVARRELAPGTGRATVLVAAPPAPDVTASLAEAVRAAGAADAAVVVVGTTEHGESEGYDRTDLALGATQDALVRAVAAANPRTVAVVNSGGPVELPWREQAGAVLLAWFPGQEGGGGLADVLFGHAEPGGRLPTTWPAVLADAPVTRTRPDGGRLDYDEGLHLGHRGWLRHHRTPAYWFGHGLGYTTWRYEELTVPPVTRAGDGLTVRVRVRNTGARAGREVVQVYLARPASALDRPARWLAGYTAVRARPGETVTATVRVPARALRHWSVAEHAWRTEAGPCRVLAGRSAGDVPLAAEVEVVPTASA”, the protein production is reported as “failed”.

In the case of “MKVCYYYDGDVGNYYYGQGHPMKPHRIRMTHNLLLNYGLYRKMEIYRPHKANAEEMTKYHSDDYIKFLRSIRPDNMSEYSKQMQRFNVGEDCPVFDGLFEFCQLSTGGSVASAVKLNKQQTDIAVNWAGGLHHAKKSEASGFCYVNDIVLAILELLKYHQRVLYIDIDIHHGDGVEEAFYTTDRVMTVSFHKYGEYFPGTGDLRDIGAGKGKYYAVNYPLRDGIDDESYEAIFKPVMSKVMEMFQPSAVVLQCGSDSLSGDRLGCFNLTIKGHAKCVEFVKSFNLPMLMLGGGGYTIRNVARCWTYETAVALDTEIPNELPYNDYFEYFGPDFKLHISPSNMTNQNTNEYLEKIKQRLFENLRMLPHLEHHHHHH”, the protein production is reported as “failed”.

With “MGHHHHHHSHESVVPARMAEMARCIRERDFPSFAQLTMKDSNQFHATCLDTFPPISYLNAISWRIIHLVHRFNAHHGDTKVAYTFDAGPNAVIFTLDDTVAEFVAAVWHGFPPGSNGD” the protein production was “failed”.
